Laboratory results from article doi:10.1101/553511 (bioRxiv, 2019).

B1: KAP1 RBCC domain (RBCC, 23-418) (domain or fragment)
chain: GEGSAGGEKRSTAPSAAASASASAAASSPAGGGAEALELLEHCGVCRERLRPEREPRLLPCLHSACSACLGPAAPAAANSSGDGGAAGDGTVVDCPVCKQQCFSKDIVENYFMRDSGSKAATDAQDANQCCTSCEDNAPATSYCVECSEPLCETCVEAHQRVKYTKDHTVRSTGPAKSRDGERTVYCNVHKHEPLVLFCESCDTLTCRDCQLNAHKDHQYQFLEDAVRNQRKLLASLVKRLGDKHATLQKSTKEVRSSIRQVSDVQKRVQVDVKMAILQIMKELNKRGRVLVNDAQKVTEGQQERLERQHWTMTKIQKHQEHILRFASWALESDNNTALLLSKKLIYFQLHRALKMIVDPVEPHGEMKFQWDLNAWTKSAEAFGKIVAERPGTNST
B2: KAP1 full length protein (KAP1 FL, 1-835) (natural protein)
chain: MAASAAAASAAAASAASGSPGPGEGSAGGEKRSTAPSAAASASASAAASSPAGGGAEALELLEHCGVCRERLRPEREPRLLPCLHSACSACLGPAAPAAANSSGDGGAAGDGTVVDCPVCKQQCFSKDIVENYFMRDSGSKAATDAQDANQCCTSCEDNAPATSYCVECSEPLCETCVEAHQRVKYTKDHTVRSTGPAKSRDGERTVYCNVHKHEPLVLFCESCDTLTCRDCQLNAHKDHQYQFLEDAVRNQRKLLASLVKRLGDKHATLQKSTKEVRSSIRQVSDVQKRVQVDVKMAILQIMKELNKRGRVLVNDAQKVTEGQQERLERQHWTMTKIQKHQEHILRFASWALESDNNTALLLSKKLIYFQLHRALKMIVDPVEPHGEMKFQWDLNAWTKSAEAFGKIVAERPGTNSTGPAPMAPPRAPGPLSKQGSGSSQPMEVQEGYGFGSGDDPYSSAEPHVSGVKRSRSGEGEVSGLMRKVPRVSLERLDLDLTADSQPPVFKVFPGSTTEDYNLIVIERGAAAAATGQPGTAPAGTPGAPPLAGMAIVKEEETEAAIGAPPTATEGPETKPVLMALAEGPGAEGPRLASPSGSTSSGLEVVAPEGTSAPGGGPGTLDDSATICRVCQKPGDLVMCNQCEFCFHLDCHLPALQDVPGEEWSCSLCHVLPDLKEEDGSLSLDGADSTGVVAKLSPANQRKCERVLLALFCHEPCRPLHQLATDSTFSLDQPGGTLDLTLIRARLQEKLSPPYSSPQEFAQDVGRMFKQFNKLTEDKADVQSIIGLQRFFETRMNEAFGDTKFSAVLVEPPPMSLPGAGLSSQELSGGPGDGP
B3: ΔKAP1 (23-812) (domain or fragment)
chain: GEGSAGGEKRSTAPSAAASASASAAASSPAGGGAEALELLEHCGVCRERLRPEREPRLLPCLHSACSACLGPAAPAAANSSGDGGAAGDGTVVDCPVCKQQCFSKDIVENYFMRDSGSKAATDAQDANQCCTSCEDNAPATSYCVECSEPLCETCVEAHQRVKYTKDHTVRSTGPAKSRDGERTVYCNVHKHEPLVLFCESCDTLTCRDCQLNAHKDHQYQFLEDAVRNQRKLLASLVKRLGDKHATLQKSTKEVRSSIRQVSDVQKRVQVDVKMAILQIMKELNKRGRVLVNDAQKVTEGQQERLERQHWTMTKIQKHQEHILRFASWALESDNNTALLLSKKLIYFQLHRALKMIVDPVEPHGEMKFQWDLNAWTKSAEAFGKIVAERPGTNSTGPAPMAPPRAPGPLSKQGSGSSQPMEVQEGYGFGSGDDPYSSAEPHVSGVKRSRSGEGEVSGLMRKVPRVSLERLDLDLTADSQPPVFKVFPGSTTEDYNLIVIERGAAAAATGQPGTAPAGTPGAPPLAGMAIVKEEETEAAIGAPPTATEGPETKPVLMALAEGPGAEGPRLASPSGSTSSGLEVVAPEGTSAPGGGPGTLDDSATICRVCQKPGDLVMCNQCEFCFHLDCHLPALQDVPGEEWSCSLCHVLPDLKEEDGSLSLDGADSTGVVAKLSPANQRKCERVLLALFCHEPCRPLHQLATDSTFSLDQPGGTLDLTLIRARLQEKLSPPYSSPQEFAQDVGRMFKQFNKLTEDKADVQSIIGLQRFFETRMNEAFGDTKFSAVLVEP

Molecular target: the molecule itself
Test: SEC-MALS

Protein | stoichiometry N
B1 | 2
B2 | 2
B3 | 2
